In patent US20240270826A1 (NATIONAL RESEARCH COUNCIL OF CANADA, published 2024):
“And” between values parts separate entries of the source, which are not always exact repeats. Identical values can stand only once.

B1: NRCoV2-MRed11 VHH-Fc (Fc fusion)
chain: EVQLVESGGGLVQAGGSLRLSCAASGFTFSSYAMSWHRQAPGKGLEWVSAINSGGGSTSYADSVKGRFAISRDNAKNTLYLQMNSLKPEDTAVYYCATTISDGSSWSTKSYRGQGTQVTVSS
notes: bivalent VHH-Fc
B2: NRCoV2-SR01 VHH-Fc (Fc fusion)
chain: EVQLVQSGGGSVQAGGSLRLSCVASGFTFDNYAIGWFRQAPGKEREGVSCISGNGGVTIYADSVKGRFTISRDNAKNLVYLQMNSLKPEDTAVYYCAATGIRSTWSVYGCSRLAGPYDYWGQGTQVTVSS
notes: bivalent VHH-Fc
B3: NRCoV2-SR02 VHH-Fc (Fc fusion)
chain: EVQLVDSGGGLVQAGGSLRLSCTASEFTLNYYSIGWFRQSPGKEREGVSCIRYSGGGIDYADSVKGRFTISRDNAKNTVYLTMNSLKPEDTAVYYCAADRLYSRACPTAGGRNYWGQGTQVTVSS
notes: bivalent VHH-Fc
B4: NRCoV2-02 VHH (VHH)
VHH: EVQLVESGGGLVQAGGSLRLSCAASGFTFSNYAMNWVRQAPGKGLEWVSGISGRGDDTRYADSVKGRFTISRDNAKNTLFLQMRSLRPEDTGVYRCTKGPDLYYFGSGYSDRGQGTQVTVSS
B5: NRCoV2-02 VHH-Fc (Fc fusion)
chain: B4 VHH
notes: bivalent VHH-Fc
B6: NRCoV2-11 VHH (VHH)
VHH: EVQLVSSGGGLVQPGGSLRLSCAASGSSLDSYSVSWFRQAPGKEREWISFISRYYSSTYYTDSVKGRFTTSRDGDQKTVHLQMNSLKPEDTAVYYCAARSRDFSSPFSATDTYTSWGQGTQVTVSS
B7: NRCoV2-1d VHH (VHH)
VHH: EVQLVESGGGSVQPGGSLRLSCAASGSTLDYYAIGWFRQAPGKEREWVSSVSSSDGNTLYADSVKGRFTISRDNAKNTVYLQMNSLKAEDTAVYVCAADYSMRPFAVGRWHRDYEYWGQGTQVTVSS
B8: NRCoV2-07 VHH (VHH)
VHH: QVQLVQSGGGLVQPGGSLRLSCAASGVTLDYYAIGWFRQAPGKEREAVSCISSNGRRNHYVASVRGRFTISRDNAKSTVYLQMNSLKPEDTAVYYCAAVQDVHGDNYYCTSPNEYNVWGQGTQVTVSS
B9: NRCoV2-MRed04 VHH-Fc (Fc fusion)
chain: EVQLVESGGGLVQPGRSLRLSCAASGNSFSISTMGWFRQAPGKERELVASIWSDTTTSYADSVKGRFTISTDNTRTKVYLQMSSLNPEDTAVYYCAADRGFVVRGQYDYWGQGTQVTVSS
notes: bivalent VHH-Fc
B10: NRCoV2-20 VHH-Fc (Fc fusion)
chain: EVQLQQSGGGLVQPGGSLRLSCAASGRTFSNYVVGWFRQAPQAPGKDHEFVAVISGSDTETYYADSVKGRFTISRDNAKNTVYLQMNSLKPEDTAVYYCAADRGMSYYYTRATEYYYWGQGTQVTVSS
notes: bivalent VHH-Fc
B11: NRCoV2-12 VHH-Fc (Fc fusion)
chain: EVQLQQSGGGLVQAGGSLRLSCAASGRTFRNYVMGWFRQAPQAPGKDHEFVAAISWGGTEIYYADSVKGRFTISRDNAKNTVYLQMNSLKPEDTAVYYCAADRGLSYYYTRTTEYNYWGQGTQVTVSS
notes: bivalent VHH-Fc
B12: NRCoV2-SR01 VHH-Fc (Fc fusion)
chain: B2 chain
notes: bivalent VHH-Fc
B13: NRCoV2-11 VHH-Fc (Fc fusion)
chain: B6 VHH
notes: bivalent VHH-Fc
B14: NRCoV2-SR13 VHH-Fc (Fc fusion)
chain: EVQLVESGGGLVTTGGSLRLSCATSGSRFGSKHMAWYRQAPGKQRDLVAAISSGGSTHYGSSVKGRFTISRDNAKSTVYLQMNSLNPEDTAVFYCNMGGWDYRSNTYIPGSRSDYWGQGTQVTVSS
notes: bivalent VHH-Fc
B15: NRCoV2-18 VHH-Fc (Fc fusion)
chain: EVQLVESGGGLVQAGGSLRLSCVASGITISGYNMAWWRQTRGKQTERVAFINSGGSTTYSDSVKGRFTISRDNGKNTAYLQMNSLNAEDTADYFCSLHTSHDYWGQGTQVTVSS
notes: bivalent VHH-Fc
B16: NRCoV2-07 VHH-Fc (Fc fusion)
chain: B8 VHH
notes: bivalent VHH-Fc

Each binder was assayed against T1, SARS-CoV-2 S1 (aa16-685) (Wuhan) (SARS-CoV-2 Wuhan, UniProt P0DTC2 16-685) (assay: ELISA).
T1 construct: NRC; FLAG, 6xHis tags

B1: no binding (tested: 13 nM).

The binders below were run against SARS-CoV-2 S1-NTD (aa16-305) (SARS-CoV-2 Wuhan, UniProt P0DTC2 16-305) (assay: ELISA).

B1: no binding (tested: 13 nM).

The binders below were run against SARS-CoV spike (S) (SARS-CoV, UniProt P59594 14-1195) (assay: ELISA).

B1: no binding (tested: 13 nM).

These binders were tested against T2, SARS-CoV-2 spike protein S on live virus, Wuhan (strain SARS-CoV-2/Canada/VIDO-01/2020) (SARS-CoV-2 (Wuhan), UniProt P0DTC2 14-1273) (assay: cell-based or functional assay).

Point of comparison: B4, MN100 1.25 nM. Against it:
- B2 — 5-fold higher, 6.25 nM
- B3 — 5-fold higher, 6.25 nM
- B5 — lower, ≤ 0.01 nM

Target: T2, SARS-CoV-2 spike protein S on live …
Test: cell-based or functional assay
Remark: another data set of the same source

Point of comparison: B2, “LVNA IC50” value 9.42 nM. Against it:
- B3 — within 1.5-fold, 14.1 nM
- B5 — 78-fold lower, 0.12 nM

The binders below were run against T3, Human SARS-CoV-2_Wuhan S (SmT1) (SARS-CoV-2 (Wuhan), UniProt P0DTC2 14-1208) (assay: flow cytometry SVNA, VHH-Fc vs biotin-S binding to Vero E6 ACE2).

Point of comparison: B2, IC50 6.6 nM. Against it:
- B3 — within 1.5-fold, 5.8 nM
- B5 — within 1.5-fold, 5 nM

Point of comparison: B5, IC99 30 nM. Against it:
- B2 — 1.9-fold higher, 56.9 nM
- B3 — 1.7-fold higher, 49.8 nM

Point of comparison: B5, Imax % 94%. Against it:
- B2 — lower, 59%
- B3 — lower, 53%

These binders were tested against S1-Fc (SARS-CoV-2 S1 aa16-685, Wuhan, human IgG1 Fc) (SARS-CoV-2 (Wuhan); human, UniProt P0DTC2 16-685) (assay: not given).

Point of comparison: B4, EC50 0.2 nM. Against it:
- B6 — the same, 0.2 nM

In the case of B7, the EC50 is reported as 1.1 nM and 1.3 nM.
In the case of B8, the EC50 is reported as 1.1 nM and 1 nM.

The binders below were run against T3, Human SARS-CoV-2_Wuhan S (SmT1) (assay: flow cytometry SVNA, VHH vs biotin-S binding to Vero E6 ACE2).

Point of comparison: B7, IC50 8.6 nM. Against it:
- B4 — 1.7-fold lower, 5.1 nM
- B8 — within 1.5-fold, 7.5 nM

Point of comparison: B4, IC99 15.5 nM. Against it:
- B7 — 2.6-fold higher, 40.8 nM
- B8 — 4.2-fold higher, 65.3 nM

Point of comparison: B7, Imax % 72%. Against it:
- B4 — higher, 100%
- B8 — higher, 86%

Each binder was assayed against T4, SARS-CoV-2 S on CHO-S cells (SARS-CoV-2, UniProt P0DTC2 14-1273) (assay: flow cytometry, CHO-S cells).
T4 construct: whole, on cells

Work on B1 yielded a Bmax of 3250.

B1 showed an EC50 of 2.9 nM.

Each binder was assayed against Human SARS-CoV-2_Wuhan S (SmT1) (SARS-CoV-2 (Wuhan), UniProt P0DTC2 14-1208) (assay: flow cytometry SVNA: VHH-Fc inhibits S binding to ACE2 on Vero E6 cells).

Point of comparison: B15, IC50 9.1 nM. Against it:
- B9 — 1.8-fold lower, 5 nM
- B10 — within 1.5-fold, 6.5 nM
- B11 — 2.6-fold lower, 3.5 nM
- B12 — 2.2-fold lower, 4.2 nM
- B13 — 2.8-fold lower, 3.2 nM
- B14 — within 1.5-fold, 7.7 nM
- B16 — 1.9-fold lower, 4.7 nM

These binders were tested against Human SARS-CoV S (SARS-CoV, UniProt P59594 14-1190) in the same assay as above.

Point of comparison: B12, IC50 5.1 nM. Against it:
- B9 — 4.8-fold higher, 24.6 nM
- B10 — 2-fold higher, 10.3 nM
- B11 — 1.6-fold lower, 3.1 nM
- B13 — 1.5-fold higher, 7.7 nM
- B14 — 2.9-fold higher, 15 nM
- B15 — 2.5-fold higher, 12.7 nM
- B16 — within 1.5-fold, 4.2 nM
